# Test results as given in the supplement of paper PMC6757056.
# ± gives the standard deviation of the averaged measurements.
# B1: library; a variant is named by its letters at N, in order (parent)
# chain: GCUGUCACCGGUGCUUGGUACGUUAUAUUCAGCCGGUCUGAUGAGUCUNNNNNNAGACGAAACAGC
# Assays:
# [1] = variants of: B1; experiment: normalized RNA/DNA level without ligand (relative to sTRSVctl = 100) (log10 (% of sTRSVctl)); HEK293T overexpressing SLC46A1; higher = less ribozyme self-cleavage, higher mRNA level; conditions: without (6R,S)-folinic acid; ligand present: no
# Procedure, shortened: (§1)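 Ribozyme switch library plasmids linked to reporters were introduced into HEK293T cells at 4 µg per 6-well well, with ligand, if any, added 1 h before. Total RNA was extracted with EDTA 72 h later, reverse-transcribed, amplified, barcoded and sequenced. RNA level was computed from RNA over DNA reads relative to a spiked-in non-cleaving sequence or the top sequences, then scaled and log-transformed. The top set was 25 sequences, values were ×100 and log10, and the cutoff was ≥100 DNA reads.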
# [2] = variants of: B1; experiment: normalized RNA/DNA level with ligand (relative to sTRSVctl = 100) (log10 (% of sTRSVctl)); HEK293T overexpressing SLC46A1; ligand concentration (+) RNA-Seq: 6 mM; higher = less ribozyme self-cleavage, higher mRNA level; conditions: with (6R,S)-folinic acid; ligand present: yes
# Procedure, shortened: as §1
# [3] = variants of: B1; experiment: FACS-Seq fitted mean relative fluorescence mCherry/BFP without ligand (log10 relative fluorescence); HEK293T overexpressing SLC46A1; higher = higher reporter protein expression; conditions: without (6R,S)-folinic acid; ligand present: no
# Procedure, shortened: (§2)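 After lentiviral transduction, HEK293T library cells bearing an mCherry ribozyme-switch reporter and an EF1α-BFP marker were enriched. They were then held for 48 h with or without ligand and sorted by mCherry/BFP into 6 bins, and each bin's genomic DNA was PCR-amplified, barcoded and MiSeq-sequenced. Fluorescence is expressed as a normalized fitted mean: the normal mean of log10(mCherry/BFP) bin counts, scaled to five spiked-in control ribozymes.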
# [4] = variants of: B1; experiment: FACS-Seq fitted mean relative fluorescence mCherry/BFP with ligand (log10 relative fluorescence); HEK293T overexpressing SLC46A1; ligand concentration (+) FACS-Seq: 6 mM; higher = higher reporter protein expression; conditions: with (6R,S)-folinic acid; ligand present: yes
# Procedure, shortened: as §2
Variant,normalized RNA/DNA level without ligand (log10) [1],normalized RNA/DNA level with ligand (log10) [2],FACS-Seq fitted mean (log10) [3],FACS-Seq fitted mean (log10) [4]
CACAAG,1.961 ± 0.006,2.013 ± 0.02,,
CACAAC,2.004 ± 0.016,1.99 ± 0.05,,
AUUUGG,1.88 ± 0.0039,1.96 ± 0.023,0.293 ± 0.04,0.37 ± 0.04
UAACGU,1.95 ± 0.028,2.003 ± 0.013,,
AUUGAA,1.97 ± 0.01,2 ± 0.014,0.561 ± 0.054,0.718 ± 0.079
AUUGAG,1.715 ± 0.01,1.946 ± 0.012,0.4944 ± 0.0016,0.969 ± 0.14
GUUUAG,1.965 ± 0.0083,2.02 ± 0.033,0.516 ± 0.048,0.495 ± 0.068
CAAACA,1.979 ± 0.014,2 ± 0.044,,
CAAACG,2.02 ± 0.0085,2.03 ± 0.036,,
CAACCU,2.051 ± 0.012,2.05 ± 0.035,,
CAACCC,2.073 ± 0.0092,2.03 ± 0.079,,
CAACCG,2.0386 ± 0.00089,2.04 ± 0.02,,
CAACCA,2.032 ± 0.015,2.019 ± 0.013,,
AUUGCG,1.8333 ± 0.00083,2 ± 0.04,0.231 ± 0.12,0.245 ± 0.22
GAACGU,1.988 ± 0.0095,2 ± 0.027,,
AUUAUU,2.02 ± 0.023,2.03 ± 0.024,0.191 ± 0.11,0.497 ± 0.056
CAAUUG,2.014 ± 0.0049,2.06 ± 0.023,,
CAAUUU,1.995 ± 0.0068,2 ± 0.032,,
UAAAUA,1.952 ± 0.014,2 ± 0.034,,
UAAAUC,2.06 ± 0.0029,2.06 ± 0.045,,
UAAAUU,1.984 ± 0.011,2.017 ± 0.02,,
UAACUC,2.046 ± 0.0055,2.03 ± 0.045,,
GAACAU,1.9736 ± 0.0012,2.01 ± 0.035,,
GAACAC,1.998 ± 0.018,2.014 ± 0.0037,,

Variant,normalized RNA/DNA level without ligand (log10) [1],normalized RNA/DNA level with ligand (log10) [2],FACS-Seq fitted mean (log10) [3],FACS-Seq fitted mean (log10) [4]
CAAAUA,1.95 ± 0.01,1.99 ± 0.025,,
CAAAUG,2.007 ± 0.0091,2.007 ± 0.017,,
CAAAUU,2.011 ± 0.0089,2.03 ± 0.027,,
CAAAUC,2.05 ± 0.026,2.02 ± 0.047,,
AUUUAU,2.011 ± 0.0041,2.01 ± 0.035,0.207 ± 0.088,0.186 ± 0.11
AUUUAC,2.001 ± 0.018,2.03 ± 0.026,0.138 ± 0.029,0.497 ± 0.13
UAAUAC,1.941 ± 0.0049,1.96 ± 0.021,,
UAAUAA,1.931 ± 0.0048,1.985 ± 0.013,,
GAACCC,2.02 ± 0.018,2.017 ± 0.0044,,
GAACCG,2.018 ± 0.017,2.03 ± 0.038,,
GAACCA,2.0209 ± 0.0019,2.01 ± 0.037,,
CAAGCG,2.057 ± 0.015,2.062 ± 0.0093,,
CAAGCC,2.099 ± 0.01,2.03 ± 0.046,,
AAACCG,1.97 ± 0.0043,2 ± 0.029,,
AAACCU,2.0232 ± 0.0015,2.03 ± 0.031,,
AAACCC,2.048 ± 0.0094,2.032 ± 0.0089,,
AAAGCU,2.003 ± 0.018,2.013 ± 0.013,,
AAAGCC,2.03 ± 0.013,2.05 ± 0.028,,
GUUCCA,2.0222 ± 0.00044,2.03 ± 0.054,0.262 ± 0.14,0.191 ± 0.16
GUUGAC,1.949 ± 0.018,2.01 ± 0.028,0.276 ± 0.11,0.451 ± 0.087
GUUGAG,1.89 ± 0.02,2.028 ± 0.013,0.527 ± 0.087,0.542 ± 0.36
GUUGAA,1.95 ± 0.01,2.01 ± 0.035,0.184 ± 0.013,0.741 ± 0.0086
GUUGGU,1.98 ± 0.027,2.02 ± 0.029,0.346 ± 0.21,0.126 ± 0.09
GUUGGA,1.977 ± 0.013,2.02 ± 0.04,0.594 ± 0.3,0.154 ± 0.35

Variant,normalized RNA/DNA level without ligand (log10) [1],normalized RNA/DNA level with ligand (log10) [2],FACS-Seq fitted mean (log10) [3],FACS-Seq fitted mean (log10) [4]
UUUGAG,1.735 ± 0.0097,1.98 ± 0.033,-0.104 ± 0.12,0.41 ± 0.25
UUUGAA,1.918 ± 0.0086,1.98 ± 0.042,0.0652 ± 0.029,0.135 ± 0.075
UUUGAU,1.9541 ± 0.0016,1.99 ± 0.065,0.135 ± 0.022,0.206 ± 0.34
CAACUC,2.06 ± 0.015,2.06 ± 0.024,,
CAACUG,2.029 ± 0.015,2.021 ± 0.016,,
CAACUU,2.039 ± 0.012,2.03 ± 0.052,,
CAACUA,2.01 ± 0.023,2.01 ± 0.035,,
UAAGGU,1.844 ± 0.0031,1.967 ± 0.018,,
UAAGGC,1.98 ± 0.023,2.01 ± 0.043,,
UAAUUU,1.979 ± 0.0057,2.01 ± 0.032,,
UAAUUC,2.01 ± 0.027,2.02 ± 0.031,,
UAAUUA,1.991 ± 0.0035,2.01 ± 0.048,,
AAAAUC,2.051 ± 0.0098,2.01 ± 0.023,,
AAAAUG,1.935 ± 0.013,2.02 ± 0.024,,
CAACGG,1.9202 ± 0.00028,1.976 ± 0.0039,,
CAACGC,2.025 ± 0.011,2.02 ± 0.038,,
CAACGU,2.024 ± 0.0058,2.037 ± 0.019,,
CAAUGC,2.03 ± 0.027,2.023 ± 0.02,,
CAAUGG,1.94 ± 0.0094,1.983 ± 0.0083,,
CAAUGU,1.981 ± 0.0089,1.98 ± 0.044,,
CUUGUG,2.021 ± 0.012,2.02 ± 0.039,0.147 ± 0.16,-0.331 ± 0.28
AAAAGA,1.957 ± 0.0042,2.02 ± 0.021,,
AAAAGU,1.94 ± 0.013,2 ± 0.041,,
GUUUGU,2.03 ± 0.034,2.034 ± 0.014,0.326 ± 0.024,0.672 ± 0.18

Variant,normalized RNA/DNA level without ligand (log10) [1],normalized RNA/DNA level with ligand (log10) [2],FACS-Seq fitted mean (log10) [3],FACS-Seq fitted mean (log10) [4]
UUUCUG,1.92 ± 0.0064,2 ± 0.061,0.112 ± 0.063,0.197 ± 0.012
AUUCAG,1.962 ± 0.0047,2.009 ± 0.018,0.281 ± 0.045,0.431 ± 0.097
CAAAGC,1.992 ± 0.015,2 ± 0.04,,
CAAAGU,1.983 ± 0.013,2.01 ± 0.025,,
CAAAGG,1.909 ± 0.0072,2 ± 0.021,,
CAAAGA,1.988 ± 0.015,1.99 ± 0.034,,
AUUGUG,1.8 ± 0.0029,1.99 ± 0.035,0.281 ± 0.041,0.524 ± 0.1
AAACGC,1.996 ± 0.006,2.01 ± 0.032,,
GUUGUA,1.962 ± 0.011,1.97 ± 0.05,0.281 ± 0.083,0.415 ± 0.15
GUUGUG,1.879 ± 0.0056,2.01 ± 0.023,0.391 ± 0.14,0.458 ± 0.072
UUUUAC,1.975 ± 0.002,1.97 ± 0.04,0.482 ± 0.098,0.507 ± 0.18
UUUUAG,1.836 ± 0.0045,1.97 ± 0.051,0.393 ± 0.03,0.488 ± 0.26
GAAUGU,1.988 ± 0.015,2.01 ± 0.035,,
GAAUGC,1.943 ± 0.012,2 ± 0.036,,
UUUUUG,1.855 ± 0.016,2 ± 0.022,0.145 ± 0.073,0.176 ± 0.0085
CAAGUG,2 ± 0.028,1.98 ± 0.046,,
CAAGUA,1.9916 ± 0.0019,2.03 ± 0.045,,
CAAGUC,2.04 ± 0.021,2.02 ± 0.037,,
UAACAU,1.956 ± 0.016,2 ± 0.023,,
AUUUUG,1.927 ± 0.014,1.99 ± 0.05,0.462 ± 0.029,0.552 ± 0.039
AUUUUC,2.031 ± 0.0051,2 ± 0.021,0.447 ± 0.23,0.549 ± 0.048
AUUUUA,1.969 ± 0.0082,2.01 ± 0.023,0.5131 ± 0.0034,0.318 ± 0.1
CUUAUU,1.985 ± 0.0074,2.01 ± 0.024,0.473 ± 0.12,0.678 ± 0.072
AAAUCA,1.996 ± 0.0046,2.02 ± 0.047,,
